Experimental data as given in US20220177593A1 (published 2022).

How the values were obtained:
[1] = target: Axl (human, UniProt P30530 26-449, biotinylated (site not stated)); assay: BLI
[2] = target: recombinant human Axl-msFc (human, UniProt P30530 26-449); assay: ELISA; 4-P fit parameter C
[3] = target: human Axl expressed on the surface of cells (human, UniProt P30530 26-894); assay: flow cytometry
Chain of human Axl expressed on the surface of cells (P30530 26-894): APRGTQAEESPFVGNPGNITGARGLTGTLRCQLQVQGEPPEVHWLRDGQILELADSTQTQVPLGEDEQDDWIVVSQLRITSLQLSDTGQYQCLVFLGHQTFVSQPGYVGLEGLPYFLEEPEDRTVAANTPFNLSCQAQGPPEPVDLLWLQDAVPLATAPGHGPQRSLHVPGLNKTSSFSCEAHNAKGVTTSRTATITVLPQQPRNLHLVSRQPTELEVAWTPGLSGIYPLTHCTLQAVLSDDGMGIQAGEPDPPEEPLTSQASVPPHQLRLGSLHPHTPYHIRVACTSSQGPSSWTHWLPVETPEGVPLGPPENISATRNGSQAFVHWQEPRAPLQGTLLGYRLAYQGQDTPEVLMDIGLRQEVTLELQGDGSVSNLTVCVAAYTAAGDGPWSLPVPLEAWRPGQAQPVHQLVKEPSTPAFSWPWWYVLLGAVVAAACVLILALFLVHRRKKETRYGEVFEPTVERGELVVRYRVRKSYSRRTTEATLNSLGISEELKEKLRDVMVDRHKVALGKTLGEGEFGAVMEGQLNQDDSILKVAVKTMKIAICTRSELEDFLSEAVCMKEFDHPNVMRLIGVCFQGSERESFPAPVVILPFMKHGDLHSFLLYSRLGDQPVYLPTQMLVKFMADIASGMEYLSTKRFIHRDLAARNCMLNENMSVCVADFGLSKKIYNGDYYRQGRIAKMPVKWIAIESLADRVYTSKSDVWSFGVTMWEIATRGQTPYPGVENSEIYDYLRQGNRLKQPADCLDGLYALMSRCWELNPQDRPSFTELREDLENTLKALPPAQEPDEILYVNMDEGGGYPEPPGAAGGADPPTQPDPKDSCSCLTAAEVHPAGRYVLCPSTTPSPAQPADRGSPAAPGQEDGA

Chain of Axl (P30530 whole entry): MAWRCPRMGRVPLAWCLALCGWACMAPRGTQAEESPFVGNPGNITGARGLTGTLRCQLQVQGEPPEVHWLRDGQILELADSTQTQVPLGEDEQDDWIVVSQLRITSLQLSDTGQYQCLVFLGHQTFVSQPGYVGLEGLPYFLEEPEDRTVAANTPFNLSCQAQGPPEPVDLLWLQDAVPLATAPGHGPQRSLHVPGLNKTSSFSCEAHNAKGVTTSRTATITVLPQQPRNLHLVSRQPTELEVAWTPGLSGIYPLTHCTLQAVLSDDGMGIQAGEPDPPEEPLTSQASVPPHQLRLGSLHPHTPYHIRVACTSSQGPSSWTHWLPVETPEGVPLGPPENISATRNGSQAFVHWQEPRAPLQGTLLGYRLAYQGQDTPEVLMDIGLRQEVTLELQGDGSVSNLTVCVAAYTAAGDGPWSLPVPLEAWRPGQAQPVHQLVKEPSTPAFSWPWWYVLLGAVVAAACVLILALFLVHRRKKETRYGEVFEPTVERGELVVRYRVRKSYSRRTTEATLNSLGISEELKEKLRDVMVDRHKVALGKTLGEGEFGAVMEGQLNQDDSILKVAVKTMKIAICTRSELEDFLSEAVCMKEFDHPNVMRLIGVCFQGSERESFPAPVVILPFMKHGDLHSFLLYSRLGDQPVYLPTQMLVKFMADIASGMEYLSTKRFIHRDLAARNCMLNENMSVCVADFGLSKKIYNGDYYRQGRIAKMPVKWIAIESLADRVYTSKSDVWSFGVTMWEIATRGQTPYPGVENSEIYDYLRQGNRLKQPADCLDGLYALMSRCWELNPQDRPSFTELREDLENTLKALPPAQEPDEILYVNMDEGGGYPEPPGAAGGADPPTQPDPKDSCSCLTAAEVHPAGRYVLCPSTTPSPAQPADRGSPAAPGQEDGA
Chain of recombinant human Axl-msFc (P30530 26-449): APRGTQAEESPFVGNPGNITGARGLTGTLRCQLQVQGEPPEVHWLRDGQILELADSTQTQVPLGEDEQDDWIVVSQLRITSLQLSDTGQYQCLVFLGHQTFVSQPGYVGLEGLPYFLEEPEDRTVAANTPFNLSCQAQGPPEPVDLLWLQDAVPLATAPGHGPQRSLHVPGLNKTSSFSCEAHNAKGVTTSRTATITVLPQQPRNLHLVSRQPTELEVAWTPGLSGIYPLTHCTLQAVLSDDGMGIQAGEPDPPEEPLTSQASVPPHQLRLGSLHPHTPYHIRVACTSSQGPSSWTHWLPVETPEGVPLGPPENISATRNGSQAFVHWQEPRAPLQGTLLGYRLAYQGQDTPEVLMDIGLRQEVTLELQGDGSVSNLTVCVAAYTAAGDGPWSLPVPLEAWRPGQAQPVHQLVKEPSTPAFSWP

Row | Kd [1] | EC50 [2] | EC50 [3] | Binder
1 | 0.386 nM | 0.019 µg/mL | – | Ab303 (antibody, V domains shown) VH: EVQLVESGGGVVQPGRSLRLSCAASGFTFSDYWMEWVRQAPGKGLEWVAEIRNKVNNYATYYGKSVKGRFTISRDNSKNTLYLQMNSLRAEDTAVYYCNTLRLFAYWGQGTLVTVSS VL: DIQMTQSPSSLSASVGDRVTITCRSSKSLLHRQGITYVYWYQQKPGKVPKLLIYRMSTLASGVPSRFSGSGSGTDFTLTISSLQPEDVATYYCGQLLENPYTFGQGTKLEIK
2 | 0.705 nM | 0.02 µg/mL | – | Ab302 (antibody, V domains shown) VH: EVQLVESGGGLVKPGGSLKLSCAASGFTFSDYWMEWVRQAPGKGLEWVAEIRNKVNNYATYYGKSVKGRFTISRDDSKNTLYLQMNSLKTEDTAVYYCNTLRLFAYWGQGTLVTVSS VL: DIQMTQSPSSLSASVGDRVTITCRSSKSLLHRQGITYVYWYQQKPGKVPKLLIYRMSTLASGVPSRFSGSGSGTDFTLTISSLQPEDVATYYCGQLLENPYTFGQGTKLEIK
3 | 1.55 nM | 0.019 µg/mL | – | Ab305 (antibody, V domains shown) VH: EVQLVESGGGLVQPGRSLRLSCTASGFTFSDYWMEWVRQAPGKGLEWVGEIRNKVNNYATYYGKSVKGRFTISRDDSKSIAYLQMNSLKTEDTAVYYCNTLRLFAYWGQGTLVTVSA VL: DIQMTQSPSSLSASVGDRVTITCRSSKSLLHRQGITYVYWYQQKPGKVPKLLIYRMSTLASGVPSRFSGSGSGTDFTLTISSLQPEDVATYYCGQLLENPYTFGQGTKLEIK
4 | 0.909 nM | 0.018 µg/mL | – | Ab304 (antibody, V domains shown) VH: EVQLVESGGGLVQPGGSLRLSCAASGFTFSDYWMEWVRQAPGKGLEWVGEIRNKVNNYATYYGKSVKGRFTISRDESKNSLYLQMNSLKTEDTAVYYCNTLRLFAYWGQGTTVTVSS VL: DIQMTQSPSSLSASVGDRVTITCRSSKSLLHRQGITYVYWYQQKPGKVPKLLIYRMSTLASGVPSRFSGSGSGTDFTLTISSLQPEDVATYYCGQLLENPYTFGQGTKLEIK
5 | 0.466 nM | 0.019 µg/mL | 0.025 µg/mL | Ab301 (antibody, V domains shown) VH: EVKLEASGGGLVQPGMSVKLSCTTSGFTFSDYWMEWVRQAPGKGLEWVAEIRNKVNNYATYYGKSVKGRFTISRDDSKSIVYLQMNSIRSEDTGIYYCNTLRLFAYWGQGTLVTVSA VL: DIVMTQAPLSISVTPGESPSMSCRSSKSLLHRNGITYVYWYLQKPGKSPQLLIYRMSTLASGVPDRFSGSGSETDFTLKINKVEAEDVGIYYCGQLLENPYTFGAGTRLEIK
